The values that follow come from FireProtDB (doi:10.1111/j.1432-1033.1993.tb17904.x).

The conditions of the data set: Carica papaya, Thermal, DSC, glycine-HCl 5 mM, reversible: yes.

Chain of Chymopapain wild type, P14080 (P14080 whole entry): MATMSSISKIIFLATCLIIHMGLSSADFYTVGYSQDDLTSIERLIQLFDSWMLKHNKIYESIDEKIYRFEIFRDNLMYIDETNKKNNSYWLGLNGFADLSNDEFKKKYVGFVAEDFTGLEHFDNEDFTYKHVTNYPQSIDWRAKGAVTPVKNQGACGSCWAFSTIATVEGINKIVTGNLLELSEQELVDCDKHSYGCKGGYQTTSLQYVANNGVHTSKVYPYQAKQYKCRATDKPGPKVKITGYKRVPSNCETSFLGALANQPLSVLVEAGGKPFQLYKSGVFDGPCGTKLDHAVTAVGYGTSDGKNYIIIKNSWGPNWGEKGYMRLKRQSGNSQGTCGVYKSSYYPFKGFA

With Chymopapain wild type, P14080, the Tm was 69.3 °C (pH 1.9), 71.6 °C (pH 2.4), 78.3 °C (pH 2.9) and 85.8 °C (pH 3.5). The “unfolding enthalpy (calorimetric)” value amounted to 147 kcal/mol (pH 1.9), 154 kcal/mol (pH 2.4), 175 kcal/mol (pH 2.9) and 232 kcal/mol (pH 3.5). Moreover, the “unfolding enthalpy (van 't Hoff)” value runs as follows: (pH 1.9) 88.3 kcal/mol; (pH 2.4) 87.9 kcal/mol; (pH 2.9) 95.2 kcal/mol; (pH 3.5) 125 kcal/mol.

In general, Tm refers to the temperature at which the thermal transition is half complete.
